Assay: yeast display, Sf9 membrane polyspecificity reagent, FACS + sequencing; frameworks hold sequencing errors
Method in brief: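 A nanobody's polyreactivity label depends on the gate it was sorted from. Yeast display cells were stained with 10% biotinylated, detergent-solubilized Sf9 membrane reagent for 1 hour at 4 °C, enriched on streptavidin microbeads and sorted by FACS. The low and high (top ~1%) gates were set on anti-HA fluorescence for expression and streptavidin fluorescence for reagent binding.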

Row | Sequence | polyreactivity (PSR sort gate)
1 | QVHLVESGGGLVQAGGSLRLTCAASGITLDGNAMGWYRQAPGKERELVAAITSGGGTNYADSVKGRFTISRDNAKNTVYLQMNSLKPVDTAVYYCCADKPNDGVGRLYDYWGQGTQVTVSS | low polyreactivity
2 | QVHLVESGGGLVQAGGSLRLTCAASGLTFIRYAMGCYRQAPGKERELVAAISSYGGTTYYADSVKGRFTISRDKAKNTVYLQMISLKPEDTSVYYCAAVLTYYRGSTWTFSGFAYDHWGQGTQVTVSS | high polyreactivity
3 | QVHLVESGGGLVQAGGSRRLSCAASGITYRFYTMGWYRQAPGKEREFVAAITYGVGRTDYADSVKGRFTISRDNAKNTVYLQMNSLNPEDTAVYYCAATWGYGYDYWGQGTQVTVSS | high polyreactivity
4 | QVHLVESGGGLVQAGGSRRLSCAASGRTVARPAMGWYRQAPGKERELVATITIGGRTYYADSVKGRFTISRDNAKNTVYLQMNSLKPEDTAVYYCAKRISGYRGDYWGQGTQVTVSS | high polyreactivity
5 | QVHLVESGGGLVQAGGTLRLRCAASGSIFCCNAMGWYRQAPGKERELVAAISTSGGTTYYADSVKGRFTISRDNAKNTVFLQMHSLKPEDTAVYYCAADVYSSRYLYDYWGHGTQVTVSS | low polyreactivity
6 | QVHLVESGGGLVQAGRSLRLSCAASGFIFKPYAMVRYRQAPGKERELVAAITVNGGTTYYADSVKARFTISRDNAKNTVYLQMNSLKPEDTAVYYCNRGRPGGPSWYHYDYWGQGTQVTVSS | high polyreactivity
7 | QVHLVESGGGLVQEGGSLRLSCAASGFTFDSYAMGWYRQAPGKERELVASISSSGSTNYADSVKGRFTISRDNAKNTVYLQMNSLKPEDTGVYYCAAESRYPFIYEYWGQGTQVTVSS | low polyreactivity
8 | QVHLVESGGGLVQVGGSLRLSCAASGSIFRWYAMGWYRQAPGKERELVAAISSSVGRTYYADSVKGRFTISRDNAKNTVYLQMNSLKPEDTAVYYCAVRYSVVYGTYYYWGQGTKVTVSS | high polyreactivity
9 | QVHLVESGGRLVQAGGSLRLSCAASGRTVVDNAMGWYRQAPGKESQLVAAISSGGTTNFADSVKGRFTISRDIAKNTVYLQMNSLKPEDTAVFYCNTVATYLRSGYGNWGQGTQVTVSS | low polyreactivity
10 | QVHLVESGGVLVQAGGRHRISCAASGRTFIQNAMGWYRQAPGKERELVAAISWSGGSTYYADSVKGRFTISRDNAKNTVYLQMNSLKPADTAVSYCAAETYDYLFHTYEYWGQATQVTVSS | low polyreactivity
11 | QVHLVESGRGLVQAGGSLRLSCAASGRTLYRYAMGWYRQAPGKERELVAAINQSGGRTYYADSVKGRFTISRDNAKNTVYFQMNSLKPEDTAVYYCAASPVRVGKVIDGRDYWGQGTQVTVSS | high polyreactivity
12 | QVHLVESGRGLVQAGGSLRLSCAASGSIFESYAIGWYRQAPGKERELVAAISGNSDSTYYADSVKGRFTISRDNEKNTVYLQMNSLKPEDTAVYYCAKEGGNGYDYWGQGTQVTVSS | low polyreactivity
13 | QVHLVESGRGLVQAGRSLRLSCAASGLTFDWYDMGCYRQAPGKERELVAAITSVGSTYYADSVKGRFTISRDNAKKTVYLQMNSLKPEDTAVYYCGVEGVIWSFWPYEYWGQGTQVTVSS | high polyreactivity
14 | QVHLVESGVGLVQAGGSLRLSCAASGFIFYYNAMGWYRQAPGKERELVAAISRTGGSTYYADSVKGRFTISRDNAKNTVYLQMNSLKPEDTAVYYCAAVGSPNRRPSRWEGSWGQGTQVTVSS | high polyreactivity
15 | QVHLVESGVGLVQAGGTLRLSCAASGRTFRVYALVWYRQAPGKERELVAAITWNGGSTYYADSVKGRFTISRDNAKNNVYLQMNRLKPEDTAVYYSAAARYAYNIWSGAYDYWGQGTQVTVSS | high polyreactivity
16 | QVHLVESRGRLVQAGGSLRLSCAASGSIFEPNAMGWYRQAPGKEREFVAAISGSGGSTYYADSVKARFTISRDNAKNTVYLQMNSRNPEDTAVYYCATRGKRSYFRTFYYWGQATQVTVSS | high polyreactivity
17 | QVHLVESVGGLFQAGGSLRLSCAPSGYIYVANVKGWYRQAPGKERELVAAINRRTGITYYADSVKGRCTNSRDNAKNTVNLQMNSLKTEDTAVYYCAALAQSTTYTRPYDYWGQGTQVTVSS | low polyreactivity
18 | QVHLVESVGGLVQAGGSLRLSCAASGRIFRYYAMGWYRQAPVKAWELVATISQRGGTYYADSVKGRFTISRDNAKNTVYLQMNSLKPEDTAVYYCAARINTYRSYYPSSRSDYWGQGTQVTVSS | high polyreactivity
19 | QVHLVESWGGLVQAGGSLRLICAASGSTFYANAMGWYRQAPGKERQLVAAITRSRRSTYYADSVKGRFTISRDNAKNTVYLQMNSLKRVDTAVYYFSARRVRDRVRYDYCGQGTQVTVSS | high polyreactivity
20 | QVHLVESWGGLVQAGGSLRLSCAASGSIFYYYAMGWYRLAPGKERELVAAITSGGSTYYADSVKGRFTISRDNAKNTVYLQMNSLKPEDTAVYYCAAVFYAAYLRYVWYSYDYWGQGTQVTVSS | low polyreactivity

Row | Sequence | polyreactivity (PSR sort gate)
21 | QVHLVETGGGLVHAGGSLRLSCASSGNIFSWYAMGWYRQAPGKEREFVAVIRGRGGSTYYADSVKGRFTISRDNAKNNVYLLMKSLKPEDTAVYYCAIRGFVLYFYRSGYGYGYWGQGTQVTVSS | low polyreactivity
22 | QVHLVETGGGLVQEGGSLRLSCAATGSNFGQNAMGWYRQAPGKERELVAAITRRGVATYYADSVKGRFTISRDNAKNTVYLQLISLKPEDTAVYYCAKRYHPNSPYDYWGQGTQVTVSS | low polyreactivity
23 | QVHLVQSGGGLVQAGGSLRLSCAASGRTFYIYAMGCYRQAPGKERELVAAISWRGGSTYYANSVKGRFTISLDHAKYTVYLQMNSLKPEDTAVYYCAAEGAHVKWYRNWWEYDDWGQGTQVTVSS | high polyreactivity
24 | QVHLVVSGGGLVQAGGSLRLSCAASGRTFIRYAMGWYRQAPWKESELVAAITQSGGRTYYADSVKGRFTISRDNAKNTVYLQMNSLIPEDTAVYYCAAIGRYAFYYPRDYWGQGTQVTVSS | high polyreactivity
25 | QVKLQESGGGLVQAGGSLRLSCAASGNISVTGFMGLYRQAPGKERELVASIGIGGTTYYADSVKGRFSISRDNAKNTVYLQMNSLKPEDTAVYYCAGIYLYYAYSYWGQGTQVTVSS | low polyreactivity
26 | QVKLVDSGGGLVQAGGSLRLSCAASGSIFAGYAMGWYRQEPGKVRELVAAINASGGSTYYADSVKGRFTISRDNAKNTVYLQMNSLKPEDTAVYYCNRVYKRYYIGGYDYWGQGTQLTVSS | high polyreactivity
27 | QVKLVESAGGLVQAGGSHRLSCAASARIFRGNTRGWYRQAPGKEREVVARITWNGGTTNYADSVKGRFTISRDYAKNTVSLQMNSLKPVDTAVYYCAKGSLRQITGILSWYYYWRQGTQVTVSS | high polyreactivity
28 | QVKLVESAGGLVQAGGSLRLSCPASGSTFPKYPMGWSRQEPGKERELVAAITWRGGSTYYADSVKGRFTISRDNAKNTVYLQMISLNPEDTAVYYCAAVPYYPSRMDYWGQGTQVTVSS | low polyreactivity
29 | QVKLVESGGCLVQAGGSLRLSCAASGRTIGYYGMGWYRQAPGKARELVAAITGSGGSTYYADSVKGRFTISRDNSKNTVYLQMNILIPEDTAVYYCAATYLSRWTLYDYWGQGTQVTVSS | high polyreactivity
30 | QVKLVESGGGLVMAGGSLRLSCAASGRTFWIYAMGRYRQAPGKERELVAAISQSSSITYYADSVKRRFTFSRDNAKNTVYLQMNSLKPEDTEGYYCNSDVLRYQGSWLEYWGQGTQVTVSS | low polyreactivity
31 | QVKLVESGGGLVQAGCSLRISCAASGITFKNYAMGWYRQAHGKERELVAAIRSIAGRTNYADSVKGRFTISRDYANNTVYLKMNSLKPEDTAVYYFTAANRGQRSDYRGYYYWGQGTQVTVSS | high polyreactivity
32 | QVKLVESGGGLVQAGCSLRLSCAASGRIYGGYTMGRYRPAPGKERELVAAITGSGGRTYFADSVKGRFTISRDNAKNTVYLHMNILTPEDTAVYYCNTVYPYRYYWGHGTQVTVSS | high polyreactivity
33 | QVKLVESGGGLVQAGGRLRLSCDAYGIILVGYDMGWYRPAPGKERELVATISSGSSTYYEDSVKGRFTISRDNAKNTVYLQMNSLKPEDTAVYYCNADHAGPYWRFHDDDYWGQGTKVTVSS | low polyreactivity
34 | QVKLVESGGGLVQAGGSLRLSCAASGFIFGDNAMGWYRQAPGKVREFVAAINSGSRTSYADSVKGRFTISRDNAKNTVYLQMNSLKPEDTAVYYCAAESVSSGDYASRYDYWGQGTQVTVSS | low polyreactivity
35 | QVKLVESGGGLVQAGGSLRLSCAASGFIFLRYGMGWYRQAPGKERELVASIDSTGGSTYADSVKGRFTISRDNAKNTVYLKMNSLKPVDTAVYFCAAAFYIVSERDYCGQGTQVTVSS | low polyreactivity
36 | QVKLVESGGGLVQAGGSLRLSCAASGFTFNRYAMGWYRQAPGKERELVAAISWSGGSTYYADSVKGRFTISRDNAKNTVYLQMNSLKPEDTAVYYCAAATAYYRYRGGYDYWGQGTQVTVSS | high polyreactivity
37 | QVKLVESGGGLVQAGGSLRLSCAASGFTFSYYAMGWYRQAPGKERELVAAISYSGSATYYADSVKVRFTISRDNAKNTVYLQLNSLIPEDTAVYYCNARGATRGLTAYTYDSWGQGTQVTVSS | high polyreactivity
38 | QVKLVESGGGLVQAGGSLRLSCAASGIIFEVYAMGWYRQAPGKERELVAAITLSSGGITYYADSVKGRFTISRDYAKNTVYLQMNSLKPEDTAVYYCAAQHDNFSGPFEYWGQGTQVTVSS | low polyreactivity
39 | QVKLVESGGGLVQAGGSLRLSCAASGITFYINAMGWYRQAPGKERELVAVIDSRGSSTFYADSVKGRFTISRDNAKNTVYLQMNSLKPEDTAVYYCAVEGYPGRYRDPGDLYYYWGQGTQVTLSS | low polyreactivity
40 | QVKLVESGGGLVQAGGSLRLSCAASGRIFDRYAMGWYRQAPGKERELVAAITSRADRTYYADSVKGRFTISRDIAKNTVYLQMNSLKPEDTAVYYCNRRRRHYSYYSTLSYDYWGQGTQVTVSS | high polyreactivity
